Target: Luciferase-ArgBP2 P1 and EYFP-ArgBP2 P1 (BRET pair)
Assay: BRET
Conditions: HEK293T cells, one representative experiment, read off a plot

- response (0.10 µg YFP fused protein, parent: est. 510): 190 mBu
- response (0.20 µg YFP fused protein, parent: est. 670): 310 mBu
- response (0.30 µg YFP fused protein, parent: est. 740): 390 mBu
- response (0.40 µg YFP fused protein, parent: est. 790): 490 mBu
- response (0.50 µg YFP fused protein, parent: est. 790): 570 mBu
Substance: Luciferase-ArgBP2 WT and EYFP-ArgBP2 WT (BRET pair) P497A; P500A
